Measured values from publication PMC6249299, “A split luciferase-based probe for quantitative proximal determination of Gαq signalling in live cells” (Scientific Reports, 2018).

T1: CBRN-PLC-β3 fusion protein (phospholipase C-β3 with CBRN at its N-terminus) (UniProt Q01970 1-1234)
T1 construct: phospholipase C-β3 (PLC-β3); also called N-terminally-tagged PLC-β3; PLC-β3 sensor protein; not shown: CBRN (N-terminal fragment of red click-beetle luciferase, amino acids 1-416), N-terminal, kept
T1 sequence (looked up): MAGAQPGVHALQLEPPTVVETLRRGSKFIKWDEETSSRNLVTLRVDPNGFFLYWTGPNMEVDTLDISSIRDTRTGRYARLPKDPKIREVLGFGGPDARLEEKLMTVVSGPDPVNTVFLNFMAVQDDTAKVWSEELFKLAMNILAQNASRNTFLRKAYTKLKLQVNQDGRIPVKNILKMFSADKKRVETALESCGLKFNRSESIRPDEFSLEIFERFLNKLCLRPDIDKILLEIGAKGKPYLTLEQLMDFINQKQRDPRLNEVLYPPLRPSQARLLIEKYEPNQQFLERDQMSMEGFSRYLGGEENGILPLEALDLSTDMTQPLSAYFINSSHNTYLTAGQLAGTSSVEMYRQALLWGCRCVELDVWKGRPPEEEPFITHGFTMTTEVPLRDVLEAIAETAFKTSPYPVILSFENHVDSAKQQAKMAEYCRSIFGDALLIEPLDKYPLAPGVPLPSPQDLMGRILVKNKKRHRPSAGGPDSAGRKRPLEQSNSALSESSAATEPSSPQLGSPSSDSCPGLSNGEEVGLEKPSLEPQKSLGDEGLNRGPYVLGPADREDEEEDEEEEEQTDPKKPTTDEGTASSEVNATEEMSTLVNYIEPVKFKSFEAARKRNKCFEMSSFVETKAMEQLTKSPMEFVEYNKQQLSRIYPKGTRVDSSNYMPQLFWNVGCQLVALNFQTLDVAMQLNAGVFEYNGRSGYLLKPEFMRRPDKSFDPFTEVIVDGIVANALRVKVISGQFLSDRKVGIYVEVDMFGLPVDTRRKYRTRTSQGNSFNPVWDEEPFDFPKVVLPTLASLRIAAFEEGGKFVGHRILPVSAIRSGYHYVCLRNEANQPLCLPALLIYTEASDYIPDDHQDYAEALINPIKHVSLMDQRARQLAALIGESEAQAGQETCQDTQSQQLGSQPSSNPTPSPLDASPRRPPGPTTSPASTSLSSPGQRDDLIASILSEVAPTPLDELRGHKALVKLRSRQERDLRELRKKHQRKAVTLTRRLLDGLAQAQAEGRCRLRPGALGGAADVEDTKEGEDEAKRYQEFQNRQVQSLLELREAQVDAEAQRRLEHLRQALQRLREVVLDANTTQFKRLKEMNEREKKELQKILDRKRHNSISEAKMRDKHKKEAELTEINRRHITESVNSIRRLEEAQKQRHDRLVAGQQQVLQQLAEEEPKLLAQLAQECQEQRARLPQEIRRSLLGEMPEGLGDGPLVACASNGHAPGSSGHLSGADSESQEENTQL

B1: Gαq(123) fusion protein (CBRC integrated into the Gαq sequence after amino acid 123) (natural protein, UniProt P50148 1-359, looked up)
chain: MTLESIMACCLSEEAKEARRINDEIERQLRRDKRDARRELKLLLLGTGESGKSTFIKQMRIIHGSGYSDEDKRGFTKLVYQNIFTAMQAMIRAMDTLKIPYKYEHNKAHAQLVREVDVEKVSAFENPYVDAIKSLWNDPGIQECYDRRREYQLSDSTKYYLNDLDRVADPAYLPTQQDVLRVRVPTTGIIEYPFDLQSVIFRMVDVGGQRSERRKWIHCFENVTSIMFLVALSEYDQVLVESDNENRMEESKALFRTIITYPWFQNSSVILFLNKKDLLEEKIMYSHLVDYFPEYDGPQRDAQAAREFILKMFVDLNPDSDKIIYSHFTCATDTENIRFVFAAVKDTILQLNLKEYNLV
notes: Gαq (G protein alpha q subunit); also called modified Gαq; Gαq sensor protein
B2: Gαq(97) fusion protein (CBRC integrated into the Gαq sequence after amino acid 97) (natural protein, UniProt P50148 1-359, looked up)
chain: B1 chain
notes: Gαq (G protein alpha q subunit); CBRC inserted after amino acid 97 with flexible Gly/Ser linkers; source: HEK293T, transfected, in cells; not shown: CBRC (C-terminal fragment of red click-beetle luciferase, amino acids 394-542), internal (after residue 97), kept

Molecular target: T1, CBRN-PLC-β3 fusion protein …
Test: split reporter (BiFC, NanoBiT); split click-beetle luciferase complementation in live HEK293T cells expressing the sensor and a GPCR (hH1R; also hM1,3,5R, hNTS1R); D-luciferin added to the cells, L-15 with 5% FCS, 37 °C; stimulated with agonist (histamine)
Conditions: partners not purified

Row | Binder | S/B ratio (signal-to-background of luminescence) | fold lower S/B ratio than the sensor with Gαq(123) [fold]
1 | B1 | ~5 | 
2 | B2 |  | ~3
